Experimental data taken from PMC11547725, “Cold-Active Lipase from the Ice Cave Psychrobacter SC65A.3 Strain, a Promising Biocatalyst for Silybin Acylation” (Molecules, 2024).

Assays:
Assay in all cases: purified protein
Format in all cases: biochemical, Psychrobacter sp. SC65A.3
[1] = substrate: CCCCCCCCCCCCCCCCCC(=O)Oc1ccc([N+](=O)[O-])cc1; conditions: 25 °C
[2] = substrate: CCCCCCCCCCCCCCCC(=O)Oc1ccc([N+](=O)[O-])cc1; conditions: 25 °C, 50 mM Tris HCl pH 7.2
[3] = substrate: CCCC(=O)Oc1ccc([N+](=O)[O-])cc1; conditions: 25 °C, 50 mM Tris HCl pH 7.2, substrate in ethanol

B1: PSL2 (Psychrobacter sp. SC65A.3) (protein)
chain: MSNSTVLSVNTLLNKAVKTLNLMSFGQDKNPKSTDINLSDEIIDIEESALQDSREDKGLSIKEKILEHHLMTNYQPHLLHYAIKSFGCLPTPILESLIKCLDGPTSKQYLHVDAHLRLILAVNSKLKTPLQLIEMSELRKRFATDAVAMQAPKVWQQASDNLLSNLKQFHKKGDSAISWQDRTITNADDGDMTIRCYQNETSDNGFGFKKEQTSNPDETVLLFFHGGGFCIGDLNTHHEFCHAICEQTGWPVISVDYRLAPEHPAPAAVRDCISAYAWLAEHCEEFGALPSRIVLAGDSAGGGLSTLMAQQIITPNKEAWLDLGDEGQKTFDILQGLPHPMAQMPLYPVTDIETDYPSWELYGEGLLLDHADVAIFDAACLENSPLPRQHILTSPMLGDNRQVCPSYVVAAELDVLRDEAFAYANQLKSFGIAVQTHTVLGAPHGFIHFMSVHQRLGQETQHIITGFANFVREIIKTRALLSA
[1]; 50 mM Tris HCl pH 7.2
  Km: 3.70 mM
[1]; 50 mM Tris HCl pH 7.2, text b41 swaps the kcat of butyrate and stearate, table value taken (fits kcat/Km)
  kcat/Km: 13.9 M⁻¹ s⁻¹
[2]
  Km: 4.30 mM
  kcat/Km: 5.75 M⁻¹ s⁻¹
[3]
  Km: 2.38 mM
[3]; text b41 swaps the kcat of butyrate and stearate, table value taken (fits kcat/Km)
  kcat/Km: 25 M⁻¹ s⁻¹
